US7718774 (MacroGenics, dated 2010)

Molecular target: T1, His-tagged 2Ig-B7H3 (R&D Systems) (UniProt Q5ZPR3-2 29-245, limits assumed)
T1 construct: the 2Ig form is an isoform of it; also called 2Ig-B7H3(His); xHis 2Ig (when captured by mouse anti-poly His antibody); not shown: His tag
T1 sequence (looked up): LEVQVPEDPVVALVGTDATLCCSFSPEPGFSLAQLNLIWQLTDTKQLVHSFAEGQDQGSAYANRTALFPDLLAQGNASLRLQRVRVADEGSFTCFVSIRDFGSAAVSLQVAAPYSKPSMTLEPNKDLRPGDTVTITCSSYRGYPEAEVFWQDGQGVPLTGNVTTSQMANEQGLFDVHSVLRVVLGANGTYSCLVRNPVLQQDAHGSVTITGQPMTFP
Experiment: ELISA, 5 µg/ml 2Ig-B7H3(His) captured by mouse anti-poly His antibody, streptavidin-HRP
Procedure: To further investigate mu-anti-TES binding to 4Ig-B7H3, ELISA crosslinking experiments with a His-tagged 2Ig-B7H3 (R&D Systems) were performed. 5 µg/ml of a capture antibody, mouse anti-poly His antibody, was coated on a 96-well plate as a control, a no coat well (naked well) was also used. The wells with the capture antibody were then blocked with HBSS+1% BSA. 5 µg/ml of 2Ig-B7H3(His) or 4Ig-B7H3(His) was introduced into naked wells or capture antibody-coated wells. As a control, 5 µg/ml of 2Ig-B7H3(Fc) was introduced into naked wells. The plate was then blocked again with HBSS+1% BSA. Then […] of biotinylated mu-anti-TES7, BLA8, PA20 or STO5 (another anti-B7H3 antibody that only recognizes the 4Ig form of B7H3) was introduced into the plate. The bound biotinylated antibodies were then detected with streptavidin-HRP using standard protocols.

B1: mu-anti-TES7 (antibody, V domains shown)
VH: QVQLQQSGPELVKPGTSVRISCKASGYTFTSYYIHWVKQRPGQGLEWIGWIYPGNVNTKYNENFKGKATLTADKSSSTAYMQLSSLTSEDSAVYFCARGGYFFDQWGQGTTLTVSS
VL: DVQITQSPSYLAASPGETITVNCRASESISKYLAWYQEKPGKTNKLLIYSGSTLQSGIPSRFSGSGSGSDFTLTISSLEPEDFAMYYCHQHNEFPLTFGAGTKLELK
notes: Mouse monoclonal IgG purified from hybridoma supernatant on protein G; also called mouse anti-huTES7 antibody; murine anti-TES7 antibody
  binding result: no binding
